Experimental data: patent US20210347913A1 (CRISPR THERAPEUTICS, published 2021)

T1: PTK7 on PTK7 positive cell line SaOS-2 (osteosarcoma) (UniProt Q13308 31-1070, limits assumed)
T1 sequence (looked up): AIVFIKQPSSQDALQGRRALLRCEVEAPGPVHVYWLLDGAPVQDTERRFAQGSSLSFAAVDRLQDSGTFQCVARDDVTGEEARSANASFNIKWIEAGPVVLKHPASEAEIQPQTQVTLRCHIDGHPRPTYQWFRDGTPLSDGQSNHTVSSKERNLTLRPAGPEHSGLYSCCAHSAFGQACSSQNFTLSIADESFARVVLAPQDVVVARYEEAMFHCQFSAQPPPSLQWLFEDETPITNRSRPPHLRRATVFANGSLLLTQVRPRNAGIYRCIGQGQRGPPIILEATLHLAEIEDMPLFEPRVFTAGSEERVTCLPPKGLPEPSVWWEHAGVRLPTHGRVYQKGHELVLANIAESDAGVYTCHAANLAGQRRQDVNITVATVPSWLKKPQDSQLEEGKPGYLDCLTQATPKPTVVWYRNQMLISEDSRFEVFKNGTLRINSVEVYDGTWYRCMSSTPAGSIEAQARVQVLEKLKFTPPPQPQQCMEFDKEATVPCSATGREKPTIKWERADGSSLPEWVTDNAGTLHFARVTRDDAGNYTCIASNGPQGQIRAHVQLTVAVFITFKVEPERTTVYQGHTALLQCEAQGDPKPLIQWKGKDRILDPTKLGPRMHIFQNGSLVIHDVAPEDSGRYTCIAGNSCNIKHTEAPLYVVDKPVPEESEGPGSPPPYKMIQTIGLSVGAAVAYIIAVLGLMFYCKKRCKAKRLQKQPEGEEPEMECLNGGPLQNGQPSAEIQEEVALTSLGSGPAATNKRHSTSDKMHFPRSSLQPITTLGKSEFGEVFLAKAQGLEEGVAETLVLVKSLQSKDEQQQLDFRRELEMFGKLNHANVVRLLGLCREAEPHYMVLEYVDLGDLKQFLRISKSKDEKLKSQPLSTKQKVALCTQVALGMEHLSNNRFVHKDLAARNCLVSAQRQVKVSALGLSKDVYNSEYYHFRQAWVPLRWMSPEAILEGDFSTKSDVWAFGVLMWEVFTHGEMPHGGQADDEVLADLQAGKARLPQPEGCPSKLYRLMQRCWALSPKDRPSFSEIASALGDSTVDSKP

T2: recombinant human PTK7.Fc (R and D Systems, catalog #9799-TK) (human, UniProt Q13308 31-704, limits assumed)
T2 construct: Bought reagent; also called soluble recombinant human PTK7.Fc; soluble antigen PTK7; not shown: Fc part of the bought fusion (detected with anti-human Fc)
T2 sequence (looked up): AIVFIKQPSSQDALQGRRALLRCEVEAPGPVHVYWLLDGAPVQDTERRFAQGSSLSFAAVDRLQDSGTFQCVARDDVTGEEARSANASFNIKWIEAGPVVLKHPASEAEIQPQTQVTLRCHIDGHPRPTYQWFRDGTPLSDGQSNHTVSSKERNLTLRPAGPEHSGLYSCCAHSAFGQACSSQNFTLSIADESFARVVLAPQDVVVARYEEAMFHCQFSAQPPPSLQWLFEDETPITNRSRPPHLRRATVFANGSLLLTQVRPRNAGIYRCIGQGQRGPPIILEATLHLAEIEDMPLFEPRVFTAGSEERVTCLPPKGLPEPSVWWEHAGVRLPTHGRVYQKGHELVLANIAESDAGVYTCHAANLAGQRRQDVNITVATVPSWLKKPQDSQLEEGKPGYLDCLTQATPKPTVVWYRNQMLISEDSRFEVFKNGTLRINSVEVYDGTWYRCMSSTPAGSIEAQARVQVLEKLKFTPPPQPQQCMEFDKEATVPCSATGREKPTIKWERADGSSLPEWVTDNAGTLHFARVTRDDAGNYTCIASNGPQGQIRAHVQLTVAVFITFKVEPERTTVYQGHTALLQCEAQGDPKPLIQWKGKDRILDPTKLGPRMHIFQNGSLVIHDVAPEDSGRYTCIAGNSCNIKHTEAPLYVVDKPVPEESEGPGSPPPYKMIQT


Legend:
[1] = biological target: T1, PTK7 on PTK7 positive cell line SaOS-2 …; assay: cell-based or functional assay
[2] = biological target: T1, PTK7 on PTK7 positive cell line SaOS-2 …; assay: cell-based or functional assay; remark: listed apart in the source
[3] = biological target: T2, recombinant human PTK7.Fc (R and D …); assay: flow cytometry, percent of CAR T cells positive for 10 ug/mL PTK7.Fc
Protocol: In addition to detecting surface CAR expression, the ability of the CAR T cells and masked CAR T cells to detect target antigen was also determined. Live CAR T cells were gated by their forward scatter (FSC) and side scatter (SSC) profiles, and with DAPI dye (Invitrogen, catalog #: D3571). The cells were then stained with 10 μg/mL recombinant human PTK7.Fc (R and D Systems, catalog #9799-TK Lot DHMCO219041) as described above in Example 3, and with mouse anti-human.Fc conjugated to APC (Biolegend cat #409305) as secondary antibody for detection (FIG. 3).

IFNγ (pg/mL) at E:T = 1:0.5 [2] [pg/mL] | IFNγ (pg/mL) at E:T = 1:1 [2] [pg/mL] | % Antigen detection [3] [%] | Binder | % Cell killing at E:T = 1:0.5 [1] [%] | % Cell killing at E:T = 1:1 [1] [%]
22300 | 34900 | 61.9 | CTX181 (unmasked CAR) (other, Chimeric antigen receptor (Ab181 scFv) on the surface of TRAC-/B2M- human T cells; entry without signal peptide; also called anti-PTK7 CAR; unmasked CAR CTX181) QVQLVESGGGVVQPGRSLRLSCAASGFTFSSYGMHWVRQAPGKGLEWVAVIWDDGSNKYYVDSVKGRFTISRDNSKNTLYLQMNSLRAEDTAVYYCARDDYYGSGSFNSYYGTDVWGQGTTVTVSSGGGGSGGGGSGGGGSEIVLTQSPATLSLSPGERATLSCRASQSVSIYLAWYQQKPGQAPRLLIYDASNRATGIPARFSGSGSGTDFTLTISSLEPEDFAVYYCQQRSNWPPFTFGPGTKVDIKSAAAFVPVFLPAKPTTTPAPRPPTPAPTIASQPLSLRPEACRPAAGGAVHTRGLDFACDIYIWAPLAGTCGVLLLSLVITLYCNHRNRKRGRKKLLYIFKQPFMRPVQTTQEEDGCSCRFPEEEEGGCELRVKFSRSADAPAYQQGQNQLYNELNLGRREEYDVLDKRRGRDPEMGGKPRRKNPQEGLYNELQKDKMAEAYSEIGMKGERRRGKGHDGLYQGLSTATKDTYDALHMQALPPR | 97.1 | 96.6
885 | 830 | 28 | CTX181.M7 (other, Masked chimeric antigen receptor on the surface of TRAC-/B2M- human T cells; entry without signal peptide) QGCTMPYHIHSIGLCGSSGGSGGSGGSGGGPLGLAGGSSGQVQLVESGGGVVQPGRSLRLSCAASGFTFSSYGMHWVRQAPGKGLEWVAVIWDDGSNKYYVDSVKGRFTISRDNSKNTLYLQMNSLRAEDTAVYYCARDDYYGSGSFNSYYGTDVWGQGTTVTVSSGGGGSGGGGSGGGGSEIVLTQSPATLSLSPGERATLSCRASQSVSIYLAWYQQKPGQAPRLLIYDASNRATGIPARFSGSGSGTDFTLTISSLEPEDFAVYYCQQRSNWPPFTFGPGTKVDIKSAAAFVPVFLPAKPTTTPAPRPPTPAPTIASQPLSLRPEACRPAAGGAVHTRGLDFACDIYIWAPLAGTCGVLLLSLVITLYCNHRNRSKRSRLLHSDYMNMTPRRPGPTRKHYQPYAPPRDFAAYRSRVKFSRSADAPAYQQGQNQLYNELNLGRREEYDVLDKRRGRDPEMGGKPRRKNPQEGLYNELQKDKMAEAYSEIGMKGERRRGKGHDGLYQGLSTATKDTYDALHMQALPPR | 37.5 | 10.2
735 | 715 | 14.7 | CTX181.M6 (other, Masked chimeric antigen receptor on the surface of TRAC-/B2M- human T cells; entry without signal peptide) QGVCTYPPAHRTRFCGSSGGSGGSGGSGGGPLGLAGGSSGQVQLVESGGGVVQPGRSLRLSCAASGFTFSSYGMHWVRQAPGKGLEWVAVIWDDGSNKYYVDSVKGRFTISRDNSKNTLYLQMNSLRAEDTAVYYCARDDYYGSGSFNSYYGTDVWGQGTTVTVSSGGGGSGGGGSGGGGSEIVLTQSPATLSLSPGERATLSCRASQSVSIYLAWYQQKPGQAPRLLIYDASNRATGIPARFSGSGSGTDFTLTISSLEPEDFAVYYCQQRSNWPPFTFGPGTKVDIKSAAAFVPVFLPAKPTTTPAPRPPTPAPTIASQPLSLRPEACRPAAGGAVHTRGLDFACDIYIWAPLAGTCGVLLLSLVITLYCNHRNRSKRSRLLHSDYMNMTPRRPGPTRKHYQPYAPPRDFAAYRSRVKFSRSADAPAYQQGQNQLYNELNLGRREEYDVLDKRRGRDPEMGGKPRRKNPQEGLYNELQKDKMAEAYSEIGMKGERRRGKGHDGLYQGLSTATKDTYDALHMQALPPR | 42.4 | 13.9
9550 | 13200 | 32.6 | CTX181.M4 (other, Masked chimeric antigen receptor on the surface of TRAC-/B2M- human T cells; entry without signal peptide) QGCTFPNTTMQRTFCGSSGGSGGSGGSGGGPLGLAGGSSGQVQLVESGGGVVQPGRSLRLSCAASGFTFSSYGMHWVRQAPGKGLEWVAVIWDDGSNKYYVDSVKGRFTISRDNSKNTLYLQMNSLRAEDTAVYYCARDDYYGSGSFNSYYGTDVWGQGTTVTVSSGGGGSGGGGSGGGGSEIVLTQSPATLSLSPGERATLSCRASQSVSIYLAWYQQKPGQAPRLLIYDASNRATGIPARFSGSGSGTDFTLTISSLEPEDFAVYYCQQRSNWPPFTFGPGTKVDIKSAAAFVPVFLPAKPTTTPAPRPPTPAPTIASQPLSLRPEACRPAAGGAVHTRGLDFACDIYIWAPLAGTCGVLLLSLVITLYCNHRNRSKRSRLLHSDYMNMTPRRPGPTRKHYQPYAPPRDFAAYRSRVKFSRSADAPAYQQGQNQLYNELNLGRREEYDVLDKRRGRDPEMGGKPRRKNPQEGLYNELQKDKMAEAYSEIGMKGERRRGKGHDGLYQGLSTATKDTYDALHMQALPPR | 78.4 | 54.6

The remaining lines, values behind:

Binder | IFNγ (pg/mL) at E:T = 1:0.5 [2] [pg/mL] | IFNγ (pg/mL) at E:T = 1:1 [2] [pg/mL] | % Antigen detection [3] [%] | % Cell killing at E:T = 1:0.5 [1] [%] | % Cell killing at E:T = 1:1 [1] [%]
CTX181.M5 (other, Masked chimeric antigen receptor on the surface of TRAC-/B2M- human T cells; entry without signal peptide) QGCTYPSWVAYIRFCGSSGGSGGSGGSGGGPLGLAGGSSGQVQLVESGGGVVQPGRSLRLSCAASGFTFSSYGMHWVRQAPGKGLEWVAVIWDDGSNKYYVDSVKGRFTISRDNSKNTLYLQMNSLRAEDTAVYYCARDDYYGSGSFNSYYGTDVWGQGTTVTVSSGGGGSGGGGSGGGGSEIVLTQSPATLSLSPGERATLSCRASQSVSIYLAWYQQKPGQAPRLLIYDASNRATGIPARFSGSGSGTDFTLTISSLEPEDFAVYYCQQRSNWPPFTFGPGTKVDIKSAAAFVPVFLPAKPTTTPAPRPPTPAPTIASQPLSLRPEACRPAAGGAVHTRGLDFACDIYIWAPLAGTCGVLLLSLVITLYCNHRNRSKRSRLLHSDYMNMTPRRPGPTRKHYQPYAPPRDFAAYRSRVKFSRSADAPAYQQGQNQLYNELNLGRREEYDVLDKRRGRDPEMGGKPRRKNPQEGLYNELQKDKMAEAYSEIGMKGERRRGKGHDGLYQGLSTATKDTYDALHMQALPPR | 523 | 459 | 18.5 | 29.6 | -0.8
CTX181.M9 (other, Masked chimeric antigen receptor on the surface of TRAC-/B2M- human T cells; entry without signal peptide) QGCHIGKRPVPCLWIGSSGGSGGSGGSGGGPLGLAGGSSGQVQLVESGGGVVQPGRSLRLSCAASGFTFSSYGMHWVRQAPGKGLEWVAVIWDDGSNKYYVDSVKGRFTISRDNSKNTLYLQMNSLRAEDTAVYYCARDDYYGSGSFNSYYGTDVWGQGTTVTVSSGGGGSGGGGSGGGGSEIVLTQSPATLSLSPGERATLSCRASQSVSIYLAWYQQKPGQAPRLLIYDASNRATGIPARFSGSGSGTDFTLTISSLEPEDFAVYYCQQRSNWPPFTFGPGTKVDIKSAAAFVPVFLPAKPTTTPAPRPPTPAPTIASQPLSLRPEACRPAAGGAVHTRGLDFACDIYIWAPLAGTCGVLLLSLVITLYCNHRNRSKRSRLLHSDYMNMTPRRPGPTRKHYQPYAPPRDFAAYRSRVKFSRSADAPAYQQGQNQLYNELNLGRREEYDVLDKRRGRDPEMGGKPRRKNPQEGLYNELQKDKMAEAYSEIGMKGERRRGKGHDGLYQGLSTATKDTYDALHMQALPPR |  |  | 35.1 |  | 
